Experimental data from US20240101959A1, “USE OF IL-2R-BETA-GAMMA AGONIST PEPTIDES IN CELL MANUFACTURING” (MEDIKINE, INC., priority 2022, published 2024).
No end group written: not given here.

T1: hu-IL-2Rβ subunit (human, UniProt P14784 27-240, limits assumed)
T1 construct: also called human interleukin-2 receptor subunit β; CD122
T1 sequence (looked up): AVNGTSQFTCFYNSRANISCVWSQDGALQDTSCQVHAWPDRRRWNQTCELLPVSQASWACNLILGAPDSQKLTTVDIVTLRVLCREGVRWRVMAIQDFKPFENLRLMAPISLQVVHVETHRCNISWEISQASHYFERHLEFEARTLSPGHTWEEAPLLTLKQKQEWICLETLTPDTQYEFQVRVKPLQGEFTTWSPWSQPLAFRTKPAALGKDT


What follows are binders tested against T1, hu-IL-2Rβ subunit (assay: phage ELISA competition assay).
In the case of WLPCWIAKIGDLCDLD [SEQ ID NO 498], the IC50 is reported as < 100 µM. In the case of SRVWHPCWLARVGELCDLEVSD [SEQ ID NO 499], the IC50 is reported as < 100 µM. In the case of WEHEFTWYPCWIAQVGELCDMD [SEQ ID NO 500], the IC50 is reported as < 100 µM. In the case of HRGWVGWYPCEYALPGQLCDLE [SEQ ID NO 501], the IC50 is reported as < 100 µM. In the case of RVRRHSWWPCEIAVVGELCDLE (not fully specified (bridges); cysteine pairing not given here) [SEQ ID NO 503], the IC50 is reported as < 100 µM. With DGWWPCWIAQVGELCDLEDPV (not fully specified (bridges); cysteine pairing not given here) [SEQ ID NO 504] the IC50 was < 100 µM. In the case of ERRPDTWFPCWRALVGELCDLE [SEQ ID NO 112], the IC50 is reported as < 100 µM. For LPFQDCYIAQVGELCDLPGT [SEQ ID NO 505], the IC50 was < 100 µM. With RWMFDCLFARVGELCDIRPW [SEQ ID NO 506] the IC50 was < 100 µM. In the case of GGYYDCLIAEVGELCDMPGQ [SEQ ID NO 507], the IC50 is reported as < 100 µM. In the case of VVCYACDIAHVGELCDLTCR [SEQ ID NO 508], the IC50 is reported as < 100 µM. For TPWYDCYIANVGDLCDFASA [SEQ ID NO 509], the IC50 was < 100 µM. In the case of LESLDCFFARIGDLCEIWDV [SEQ ID NO 510], the IC50 is reported as < 100 µM. In the case of WQIFDCYLAQVGELCDLQDT [SEQ ID NO 511], the IC50 is reported as < 100 µM. GRYPDCYIAHVGELCEFYDG (not fully specified (bridges); cysteine pairing not given here) [SEQ ID NO 512] was tested, and the IC50 was < 100 µM. With FGDDFCRFIPLFEMCTTDVE [SEQ ID NO 513] the IC50 was < 100 µM. With LVYYDCYMAQVGELCDLPSL [SEQ ID NO 514] the IC50 was < 100 µM. In the case of WGRNRSWYPCWMAQLGELCDLE [SEQ ID NO 113], the IC50 is reported as < 100 µM. VSRYDCYIAKVGELCDFFEF [SEQ ID NO 515] was tested, and the IC50 was < 100 µM. For VTVQDCYFARVGDLCDLFSP [SEQ ID NO 516], the IC50 was < 100 µM. For WEWYDCLMAQVGELCDFEGN [SEQ ID NO 517], the IC50 was < 100 µM. For WAFYDCRNAQVGDFCDLWEF [SEQ ID NO 518], the IC50 was < 100 µM. With SMDQDCYFAQVGELCVLFNQ [SEQ ID NO 519] the IC50 was < 100 µM. In the case of GGYYDCLIAEVGELCDIYGR [SEQ ID NO 520], the IC50 is reported as < 100 µM. For SNWHDCLFAQVGELCDLPGS (not fully specified (bridges); cysteine pairing not given here) [SEQ ID NO 521], the IC50 was < 100 µM. With YDCYIAQVGELCDI [SEQ ID NO 522] the IC50 was < 100 µM. With SWLSDLQDCYIAQVGDLCQI [SEQ ID NO 523] the IC50 was < 100 µM. In the case of RLASDWWDCYIAKVGELCDF (not fully specified (bridges); cysteine pairing not given here) [SEQ ID NO 524], the IC50 is reported as < 100 µM. QDRRSPWYPCWMAKLGELCDLA [SEQ ID NO 114] was tested, and the IC50 was < 100 µM. In the case of RLLRDCFLAKVGDLCELFVW [SEQ ID NO 525], the IC50 is reported as < 100 µM. With QWFHNCFLARVGDTCDLFLW [SEQ ID NO 526] the IC50 was < 100 µM. ELLVDCFKVKVGELCDLFFG [SEQ ID NO 527] was tested, and the IC50 was < 100 µM. RYVHDCFIAQVGDLCDLFLH [SEQ ID NO 528] was tested, and the IC50 was < 100 µM. In the case of KWVHDCFLAKVGDVCDLFVV [SEQ ID NO 529], the IC50 is reported as < 100 µM. For RSLVDCFLVKVGDLCDFFNW [SEQ ID NO 530], the IC50 was < 100 µM. For RYLYDCFLALVGDLCVKFHQ [SEQ ID NO 531], the IC50 was < 100 µM. For AHFYDCFWAKAGELCDLWPS [SEQ ID NO 532], the IC50 was < 100 µM. WGKLVRDCFLAKVGDLCDLFLW [SEQ ID NO 534] was tested, and the IC50 was < 100 µM. With TRRWYPCYLAKLGELCDLFEGGTR [SEQ ID NO 115] the IC50 was < 100 µM. In the case of THVHDCFLAKVGDLCDLFIV [SEQ ID NO 535], the IC50 is reported as < 100 µM. HWVRDCFLAKVGELCDLFLW [SEQ ID NO 536] was tested, and the IC50 was < 100 µM. With HGILDCYFAKVGELCELFDW [SEQ ID NO 537] the IC50 was < 100 µM. With QFVKDCFLAQVGDLCELFLW [SEQ ID NO 538] the IC50 was < 100 µM. With DWLPDCYFANVGDLCSLFGS [SEQ ID NO 539] the IC50 was < 100 µM. HWFLDCFLANVGDLCDFFGN [SEQ ID NO 540] was tested, and the IC50 was < 100 µM. In the case of NWLPDCLFANVGELCDIFPW [SEQ ID NO 541], the IC50 is reported as < 100 µM. With EIFKDCLFANVGELCEIFPS [SEQ ID NO 542] the IC50 was < 100 µM. NWFHDCFLARVGDLCDLFLD [SEQ ID NO 543] was tested, and the IC50 was < 100 µM. In the case of YSFKDCYFAKVGELCELFLW [SEQ ID NO 544], the IC50 is reported as < 100 µM. For SEQWWPCWIARLGELCDLDRELSE [SEQ ID NO 116], the IC50 was < 100 µM. For EFFHDCYVARVGELCDLFGW [SEQ ID NO 545], the IC50 was < 100 µM. In the case of SYLCWLDHWGVICEED (not fully specified (bridges); cysteine pairing not given here) [SEQ ID NO 546], the IC50 is reported as < 100 µM. With WYTCMMDWLGVHCELE [SEQ ID NO 547] the IC50 was < 100 µM. QMVWWDCWSTQEGPVCELNWTA [SEQ ID NO 548] was tested, and the IC50 was < 100 µM. YWCSVWQLGSVCEMNNEETQ [SEQ ID NO 549] was tested, and the IC50 was < 100 µM. In the case of WTCWLTQLGYDCNLDVVDQSLG [SEQ ID NO 550], the IC50 is reported as < 100 µM. DGSWYTCWFTQLGEWCEQDDAK [SEQ ID NO 551] was tested, and the IC50 was < 100 µM. EFWGWQCWQEPLGWSCDLEWMD [SEQ ID NO 552] was tested, and the IC50 was < 100 µM. With WYPCWVAQLGEICDLEMTGPDSWYP [SEQ ID NO 117] the IC50 was < 100 µM. LVDCFKVKVGELCDLF (not fully specified (bridges); cysteine pairing not given here) [SEQ ID NO 555] was tested, and the IC50 was < 100 µM. For VHDCFIAQVGDLCDLF [SEQ ID NO 556], the IC50 was < 100 µM. With WPCWAALGELCDLD [SEQ ID NO 557] the IC50 was < 100 µM. In the case of WPCWALGELCDLD [SEQ ID NO 558], the IC50 is reported as < 100 µM. In the case of WPCWLGELCDLD [SEQ ID NO 559], the IC50 is reported as < 100 µM.
